From patent publication US20160272706A1 (AstraZeneca / MedImmune, published 2016)

Key:
Human IL-13 [1] = target: T1, Human IL-13 (human, UniProt P35225 35-146); assay: IC50 of the parent scFv divided by IC50 of the clone, biochemical receptor-ligand inhibition assay, purified scFv
T1 construct: also called human interleukin 13 (Peprotech); the antigen

Human IL-13 [2] = target: T1, Human IL-13; assay: biochemical receptor-ligand inhibition assay, purified scFv titrated; the IL-13 receptor used is not named in Example 1
Human IL-13 [3] = target: T1, Human IL-13; assay: biochemical receptor-ligand inhibition assay, purified scFv titrated (second panel); the IL-13 receptor used is not named in Example 1
Human IL-13 [4] = target: T1, Human IL-13; assay: IC50 of the parent scFv divided by IC50 of the clone, biochemical receptor-ligand inhibition assay, purified scFv (second panel)

T1 sequence (P35225 35-146 limits assumed): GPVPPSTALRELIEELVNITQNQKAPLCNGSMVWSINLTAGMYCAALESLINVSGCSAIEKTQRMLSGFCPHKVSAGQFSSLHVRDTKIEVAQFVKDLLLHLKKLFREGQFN

Row | Fld improvement (Human IL-13 [1]) [fold] | IC50 (Human IL-13 [2]) [nM] | IC50 (Human IL-13 [3]) [nM] | Fld improvement (Human IL-13 [4]) [fold] | Binder
1 |  |  | 14.2 | 3.2 | 13NG0086 (scFv, V domains shown, purified scFv from the mini-recombination library; member of group m20; also called ZZ0SEB-F04; copies: 1 + 1) VH: QVQLVQSGAEVKKPGASVKVSCKASGYTFTNYGLSWVRQAPGQGLEWMGWINYDGGNTQYGQEFQGRVTMTTDTSTSTAYMELRSLRSDDTAVYYCARDSSSSWARWFFDLWGRGTLVTVSS VL: SYVLTQPPSVSVAPGKTARIPCGGNMVGARLVHWYQQKPGQAPVLIVYDDMDRPSGIPERFSGSNSGNTATLTISRVEAGDEADYYCQVWDTGSRPVVFGGGTKLTVL
2 |  |  | 7.11 | 6.5 | 13NG0087 (scFv, V domains shown, purified scFv from the mini-recombination library; member of group m20; also called ZZ0SEF-E05; copies: 1 + 1) VH: QVQLVQSGAEVKKPGASVKVSCKASGYTFTNYGLSWVRQAPGQGLEWMGWINYDGGNTQYGQEFQGRVTMTTDTSTSTAYMELRSLRSDDTAVYYCARDSSSSWARWFFDLWGRGTLVTVSS VL: SYVLTQPPSVSVAPGKTARIPCGGNMVAARLVHWYQQKPGQAPVLIMFDDQDRPSGIPERFSGSNSGNTATLTISRVEAGDEADYYCQVWDTGSLPVVFGGGTKLTVL
3 |  |  | 11 | 4.2 | 13NG0082 (scFv, V domains shown, purified scFv from the mini-recombination library; member of group m20; also called ZZ0SEF-E03; copies: 1 + 1) VH: QVQLVQSGAEVKKPGASVKVSCKASGYTFTNYGLSWVRQAPGQGLEWMGWINYDGGNTQYGQEFQGRVTMTTDTSTSTAYMELRSLRSDDTAVYYCARDSSSSWARWFFDLWGRGTLVTVSS VL: SYVLTQPPSVSVAPGKTARIPCGGNMVGARLVHWYQQKPGQAPVLIVFDDEDRPSGIPERFSGSNSGNTATLTISRVEAGDEADYYCQVWDTGSRPVVFGGGTKLTVL
4 |  |  | 10.7 | 4.3 | 13NG0084 (scFv, V domains shown, purified scFv from the mini-recombination library; member of group m20; also called ZZ0SED-F07; copies: 1 + 1) VH: QVQLVQSGAEVKKPGASVKVSCKASGYTFTNYGLSWVRQAPGQGLEWMGWINYDGGNTQYGQEFQGRVTMTTDTSTSTAYMELRSLRSDDTAVYYCARDSSSSWARWFFDLWGRGTLVTVSS VL: SYVLTQPPSVSVAPGKTARIPCGGNLIAARLVHWYQQKPGQAPVLIVFDDEDRPSGIPERFSGSNSGNTATLTISRVEAGDEADYYCQVWDTGSSPVVFGGGTKLTVL
5 |  |  | 10.8 | 4.2 | 13NG0085 (scFv, V domains shown, purified scFv from the mini-recombination library; member of group m20; also called ZZ0SEF-G10; copies: 1 + 1) VH: QVQLVQSGAEVKKPGASVKVSCKASGYTFTNYGLSWVRQAPGQGLEWMGWINYDGGNTQYGQEFQGRVTMTTDTSTSTAYMELRSLRSDDTAVYYCARDSSSSWARWFFDLWGRGTLVTVSS VL: SYVLTQPPSVSVAPGKTARIPCGGNMVGARLVHWYQQKPGQAPVLIIMDDIDRPSGIPERFSGSNSGNTATLTISRVEAGDEADYYCQVWDTGSRPVVFGGGTKLTVL
6 |  |  | 8.88 | 5.2 | 13NG0083 (antibody, V domains shown, also called unmodified 13NG0083; WT) VH: QVQLVQSGAEVKKPGASVKVSCKASGYTFTNYGLSWVRQAPGQGLEWMGWINYDGGNTQYGQEFQGRVTMTTDTSTSTAYMELRSLRSDDTAVYYCARDSSSSWARWFFDLWGRGTLVTVSS VL: SYVLTQPPSVSVAPGKTARIPCGGNMVGARLVHWYQQKPGQAPVLIVFDDEDRPSGIPERFSGSNSGNTATLTISRVEAGDEADYYCQVWDTGSSPVVFGGGTKLTVL
7 |  |  | 8.9 | 5.2 | 13NG0081 (scFv, V domains shown, purified scFv from the mini-recombination library; member of group m20; the text gives two different numbers for the VH; also called ZZ0SE9-C11; copies: 1 + 1) VH: QVQLVQSGAEVKKPGASVKVSCKASGYTFTNYGLSWVRQAPGQGLEWVGWINYDGGNTQYGQEFQGRVTMTTDTSTSTAYMELRSLRSDDTAVYYCARDSSSSWARWFFDLWGRGTLVTVSS VL: SYVLTQPPSVSVAPGKTARIPCGGNLIGARLVHWYQQKPGQAPVLIVYDDMDRPSGIPERFSGSNSGNTATLTISRVEAGDEADYYCQVWDTGSRPVVFGGGTKLTVL

The next lines start with the binder.

Row | Binder | Fld improvement (Human IL-13 [1]) [fold] | IC50 (Human IL-13 [2]) [nM] | IC50 (Human IL-13 [3]) [nM] | Fld improvement (Human IL-13 [4]) [fold]
8 | 13NG0067 (scFv, V domains shown, purified scFv from the mini-recombination library; member of group m20; also called ZZ0SEF-H04; copies: 1 + 1) VH: QVQLVQSGAEVKKPGASVKVSCKASGYTFTNYGLSWVRQAPGQGLEWMGWINYDGGNTQYGQEFQGRVTMTTDTSTSTAYMELRGLRSDDTAVYYCARDSSSSWARWFFDLWGRGTLVTVSS VL: SYVLTQPPSVSVAPGKTARIPCGGNMVGARLVHWYQQKPGQAPVLIIMDDIDRPSGIPERFSGSNSGNTATLTISRVEAGDEADYYCQVWDTGSSPVVFGGGTKLTVL | 6.12 | 6.63 |  | 
9 | 13NG0077 (scFv, V domains shown, purified scFv from the mini-recombination library; member of group m20; also called ZZ0SED-A07; copies: 1 + 1) VH: QVQLVQSGAEVKKPGASVKVSCKASGYTFTNYGLSWVRQAPGQGLEWMGWINYDGGNTQYGQEFQGRVTMTTDTSTSTAYMELRSLRSDDTAVYYCARDSSSSWARWFFDLWGRGTLVTVSS VL: SYVLTQPPSVSVAPGKTARIPCGGNMVGAYLVHWYQQKPGQAPVLIVYDDMDRPSGIPERFSGSNSGNTATLTISRVEAGDEADYYCQVWDTGSSPVVFGGGTKLTVL | 3.93 | 10.3 |  | 
10 | 13NG0072 (scFv, V domains shown, purified scFv from the mini-recombination library; member of group m20; also called ZZ0SEA-H11; copies: 1 + 1) VH: QVQLVQSGAEVKKPGASVKVSCKASGYTFTNYGLSWVRQAPGQGLEWMGWINYDGGNTQYGQEFQGRVTMTTDTSTSTAYMELRSLRSDDTAVYYCARDSSSSWARWFFDLWGRGTLVTVSS VL: SYVLTQPPSVSVAPGKTARIPCGGNMVGARLVHWYQQKPGQAPVLIVYDDMDRPSGIPERFSGSNSGNTATLTISRVETGDEADYYCQVWDTGSRPVVFGGGTKLTVL | 3.16 | 12.8 |  | 
11 | 13NG0071 (scFv, V domains shown, purified scFv from the mini-recombination library; member of group m20; also called ZZ0SEE-A09; copies: 1 + 1) VH: QVQLVQSGAEVKKPGASVKVSCKASGYTFTNYGLSWVRQAPGQGLEWMGWINYDGGNTQYGQEFQGRVTMTTDTSTSTAYMELRSLRSDDTAVYYCARDSSSSWARWFFDLWGRGTLVTVSS VL: SYVLTQPPSVSVAPGKTARIPCGGNMVGARLVHWYQQKPGQAPVLIVFDDEDRPSGIPERFSGSNSGNTATLTISRVEAGDEADYYCQVWDTGSLPVVFGGGTKLTVL | 3.8 | 10.7 |  | 
12 | 13NG0069 (scFv, V domains shown, purified scFv from the mini-recombination library; member of group m20; also called ZZ0SEA-A03; copies: 1 + 1) VH: QVQLVQSGAEVKKPGASVKVSCKASGYTFTNYGLSWVRQAPGQGLEWMGWINYDGGNTQYGQEFQGRVTMTTDTSTSTAYMELRSLRSDDTAVYYCARDSSSSWARWFFDLWGRGTLVTVSS VL: SYVLTQPPSVSVAPGKTARIPCGGNMVGARLVHWYQQKPGQAPVLIIMDDIDRPSGIPERFSGSNSGNTATLTISRVEAGDEADYYCQVWDTGSRPVVFGGGTKLTVL | 5.18 | 7.85 |  | 
13 | 13NG0079 (scFv, V domains shown, purified scFv from the mini-recombination library; member of group m20; also called ZZ0SEA-B02; copies: 1 + 1) VH: QVQLVQSGAEVKKPGASVKVSCKASGYTFTNYGLSWVRQAPGQGLEWMGWINYDGGNTQYGQEFQGRVTMTTDTSTSTAYMELRSLRSDDTAVYYCARDSSSSWARWFFDLWGRGTLVTVSS VL: SYVLTQPPSVSVAPGKTARIPCGGNLIGARLVHWYQQKPGQAPVLIVYDDMDRPSGIPERFSGSNSGNTATLTISRVEAGDEADYYCQVWDTGSLPVVFGGGTKLTVL |  |  | 7.86 | 5.8
14 | 13NG0075 (scFv, V domains shown, purified scFv from the mini-recombination library; member of group m20; also called ZZ0SEE-A06; copies: 1 + 1) VH: QVQLVQSGAEVKKPGASVKVSCKASGYTFTNYGLSWVRQAPGQGLEWMGWINYDGGNTQYGQEFQGRVTMTTDTSTSTAYMELRSLRSDDTAVYYCARDSSSSWARWFFDLWGRGTLVTVSS VL: SYVLTQPPSVSVAPGKTARIPCGGNMVGARLVHWYQQKPGQAPVLVIMDDIDRPSGIPERFSGSNSGNTATLTISRVEAGDEADYYCQVWDTGSRPVVFGGGTKLTVL | 4.21 | 9.65 |  | 
15 | 13NG0068 (scFv, V domains shown, purified scFv from the mini-recombination library; member of group m20; also called ZZ0SEB-B02; copies: 1 + 1) VH: QVQLVQSGAEVKKPGASVKVSCKASGYTFTNYGLSWVRQAPGQGLEWVGWINYDGGNTQYGQEFQGRVTMTTDTSTGTAYMELRSLRSDDTAVYYCARDSSSSWARWFFDLWGRGTLVTVSS VL: SYVLTQPPLVSVAPGKTARIPCGGNLIGARLVHWYQQKPGQAPVLIIMDDIDRPSGIPERFSGSNSGNTATLTISRVEAGDEADYYCQVWDTGSDPVVFGGGTKLTVL | 7.5 | 5.42 |  | 
16 | 13NG0070 (scFv, V domains shown, purified scFv from the mini-recombination library; member of group m20; also called ZZ0SED-B06; copies: 1 + 1) VH: QVQLVQSGAEVKKPGASVKVSCKASGYTFTNYGLSWVRQAPGQGLEWMGWINYDGGNTQYGQEFQGRVTMTTDTSTSTAYMELRSLRSDDTAVYYCARDSSSSWARWFFDLWGRGTLVTVSS VL: SYVLTQPPSVSVAPGKTARIPCGGNMVGARLVHWYQQKPGQAPVLIVFDDEDRPSGIPERFSGSNSGNTATLTISRVEAGDEADYYCQVWDTGSRPVVFGGGTKLTVL | 4.28 | 9.49 |  | 
17 | 13NG0080 (scFv, V domains shown, purified scFv from the mini-recombination library; member of group m20; also called ZZ0SEA-D07; copies: 1 + 1) VH: QAQLVQSGAEVKKPGASVKVSCKASGYTFTNYGLSWVRQAPGQGLEWMGWINYDGGNTQYGQEFQGRVTMTTDTSTSTAYMELRSLRSDDTAVYYCARDSSSSWARWFFDLWGRGTLVTVSS VL: SYVLTQPPSVSVAPGKTARIPCGGNLIAARLVHWYQQKPGQAPVLIVFDDEDRPSGIPERFSGSNSGNTATLTISRVETGDEADYYCQVWDTGSSPVVFGGGTKLTVL |  |  | 11.2 | 4.1
18 | 13NG0078 (scFv, V domains shown, purified scFv from the mini-recombination library; member of group m20; also called ZZ0SFL-G06; copies: 1 + 1) VH: QVQLVQSGAEVKKPGASVKVSCKASGYTFTNYGLSWVRQAPGQGLEWVGWINYDGGNTQYGQEFQGRVTMTTDTSTSTAYMELRSLRSDDTAVYYCARDSSSSWARWFFDLWGRGTLVTVSS VL: SYVLTQPPSVSVAPGKTARIPCGGNLIAARLVHWYQQKPGQAPVLIMFDDQDRPSGIPERFSGSNSGNTATLTISRVETGDEADYYCQVWDTGSLPVVFGGGTKLTVL |  |  | 7.22 | 6.4
19 | 13NG0076 (scFv, V domains shown, purified scFv from the mini-recombination library; member of group m20; also called ZZ0SEA-F10; copies: 1 + 1) VH: QVQLVQSGAEVKKPGASVKVSCKASGYTFTNYGLSWVRQAPGQGLEWMGWINYDGGNTQYGQEFQGRVTMTTDTSTSTAYMELRSLRSDDTAVYYCARDSSSSWARWFFDLWGRGTLVTVSS VL: SYVLTQPPSVSVAPGKTARIPCGGNMVGARLVHWYQQKPGQAPVLVIMDDIDRPSGIPERFSGSNSGNTATLTISRVEAGDEADYYCQVWDTGSRPVVFGGGTKLTVL | 5.09 | 7.98 |  | 
